In publication PMC3824679 (Cell Death & Disease, 2013):

Molecular target: T1, GST-RanBP2-M1_(900–1826) (human, UniProt P49792 900-1826)
T1 sequence (looked up): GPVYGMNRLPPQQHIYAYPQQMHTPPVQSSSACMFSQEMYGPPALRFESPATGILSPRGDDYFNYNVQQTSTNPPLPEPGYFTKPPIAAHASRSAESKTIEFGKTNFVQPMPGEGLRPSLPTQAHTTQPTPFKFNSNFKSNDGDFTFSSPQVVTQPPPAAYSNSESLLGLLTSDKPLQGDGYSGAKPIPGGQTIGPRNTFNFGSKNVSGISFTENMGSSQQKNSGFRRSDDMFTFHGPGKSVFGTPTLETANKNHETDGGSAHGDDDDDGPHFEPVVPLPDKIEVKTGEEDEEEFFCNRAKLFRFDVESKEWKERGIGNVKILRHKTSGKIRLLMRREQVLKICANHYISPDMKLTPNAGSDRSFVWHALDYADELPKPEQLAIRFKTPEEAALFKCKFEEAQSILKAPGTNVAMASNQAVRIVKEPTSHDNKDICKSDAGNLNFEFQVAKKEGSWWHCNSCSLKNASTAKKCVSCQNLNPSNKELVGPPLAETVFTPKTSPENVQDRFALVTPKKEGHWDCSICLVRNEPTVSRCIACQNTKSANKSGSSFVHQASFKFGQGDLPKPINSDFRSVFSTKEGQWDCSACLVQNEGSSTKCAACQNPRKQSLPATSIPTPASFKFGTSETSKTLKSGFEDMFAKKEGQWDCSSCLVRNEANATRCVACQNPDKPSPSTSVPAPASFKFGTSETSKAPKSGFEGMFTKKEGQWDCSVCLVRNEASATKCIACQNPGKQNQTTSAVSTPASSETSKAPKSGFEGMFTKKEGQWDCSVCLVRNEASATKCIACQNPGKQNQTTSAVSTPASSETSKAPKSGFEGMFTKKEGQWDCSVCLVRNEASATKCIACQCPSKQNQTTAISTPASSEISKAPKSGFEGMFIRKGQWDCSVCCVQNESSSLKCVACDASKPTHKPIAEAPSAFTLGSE
Test: pull-down

binding result: binds
B1: His-Imp-β1-N2_(1–650) (domain or fragment, human, UniProt Q14974 1-650, looked up)
chain: MELITILEKTVSPDRLELEAAQKFLERAAVENLPTFLVELSRVLANPGNSQVARVAAGLQIKNSLTSKDPDIKAQYQQRWLAIDANARREVKNYVLQTLGTETYRPSSASQCVAGIACAEIPVNQWPELIPQLVANVTNPNSTEHMKESTLEAIGYICQDIDPEQLQDKSNEILTAIIQGMRKEEPSNNVKLAATNALLNSLEFTKANFDKESERHFIMQVVCEATQCPDTRVRVAALQNLVKIMSLYYQYMETYMGPALFAITIEAMKSDIDEVALQGIEFWSNVCDEEMDLAIEASEAAEQGRPPEHTSKFYAKGALQYLVPILTQTLTKQDENDDDDDWNPCKAAGVCLMLLATCCEDDIVPHVLPFIKEHIKNPDWRYRDAAVMAFGCILEGPEPSQLKPLVIQAMPTLIELMKDPSVVVRDTAAWTVGRICELLPEAAINDVYLAPLLQCLIEGLSAEPRVASNVCWAFSSLAEAAYEAADVADDQEEPATYCLSSSFELIVQKLLETTDRPDGHQNNLRSSAYESLMEIVKNSAKDCYPAVQKTTLVIMERLQQVLQMESHIQSTSDRIQFNDLQSLLCATLQNVLRKVQHQDALQISDVVMASLLRMFQSTAGSGGVQEDALMAVSTLVEVLGGEFLKYMEAF
